Results on 24 substances are retold here after US20210317176A1.

This test concerns the target beta-klotho. Description: cell-based or functional assay.
Substance MKEDD.hFGF21.L15.hFc (Fc fusion) returned an EC50 (ELK-luciferase assay) of 0.834 µM and an Efficacy (ELK-luciferase assay) of 83.1%.
The substance “hFc.L15.hFGF21(1-178, L98R, P171G) (Fc fusion)” showed an EC50 (ELK-luciferase assay) of 0.167 µM and an Efficacy (ELK-luciferase assay) of 63.9%.
In turn, hFc.L15.hFGF21(L98R, P171G) (Fc fusion) displayed an EC50 (ELK-luciferase assay) of 0.0025 µM and an Efficacy (ELK-luciferase assay) of 76.1%.
Substance “hFc.L15.hFGF21(L98R, P171G, 1-179) (Fc fusion)” displayed an EC50 (ELK-luciferase assay) of 0.0078 µM and an Efficacy (ELK-luciferase assay) of 77.4%.
“hFc.L15.hFGF21(L98R, P171G, A180E) (Fc fusion)” returned an EC50 (ELK-luciferase assay) of 0.0019 µM and an Efficacy (ELK-luciferase assay) of 79.6%.
Substance “hFc.L15.hFGF21(L98R, P171G, A180G) (Fc fusion)” came in with an EC50 (ELK-luciferase assay) of 0.00325 µM and an Efficacy (ELK-luciferase assay) of 76.9%.
Take “hFc.L15.hFGF21(L98R, P171G, A180P) (Fc fusion)”: the EC50 (ELK-luciferase assay) came to 0.617 µM and the Efficacy (ELK-luciferase assay) was 77.1%.
In turn, “hFc.L15.hFGF21(L98R, P171G, A180S) (Fc fusion)” had an EC50 (ELK-luciferase assay) of 0.00218 µM and an Efficacy (ELK-luciferase assay) of 84.7%.
In the same order, the values of “hFc.L15.hFGF21(L98R, P171G, G182) (Fc fusion)” are 0.0065 µM and 71.1%.
With “hFc.L15.hFGF21(L98R, P171G, GG182-3) (Fc fusion)”, the EC50 (ELK-luciferase assay) is 1.94 µM and the Efficacy (ELK-luciferase assay) came out at 84.2%.
In turn, “hFc.L15.hFGF21(L98R, P171G, GGGGG182-6) (Fc fusion)” gave an EC50 (ELK-luciferase assay) of 4.31 µM and an Efficacy (ELK-luciferase assay) of 99.7%.
As for “hFc.L15.hFGF21(L98R, P171G, P182) (Fc fusion)”, the EC50 (ELK-luciferase assay) was found to be 0.0061 µM and the Efficacy (ELK-luciferase assay) is 85.9%.
In the same order, the values of “hFc.L15.hFGF21(L98R, P171G, S181A) (Fc fusion)” are 0.00266 µM and 73.5%.
Regarding “hFc.L15.hFGF21(L98R, P171G, S181G) (Fc fusion)”, the EC50 (ELK-luciferase assay) was 0.00343 µM and the Efficacy (ELK-luciferase assay) was found to be 77.3%.
“hFc.L15.hFGF21(L98R, P171G, S181K) (Fc fusion)” returned an EC50 (ELK-luciferase assay) of 0.13 µM and an Efficacy (ELK-luciferase assay) of 87.9%.
“hFc.L15.hFGF21(L98R, P171G, S181L) (Fc fusion)” returned an EC50 (ELK-luciferase assay) of 0.00346 µM and an Efficacy (ELK-luciferase assay) of 72.6%.
In turn, “hFc.L15.hFGF21(L98R, P171G, S181P) (Fc fusion)” had an EC50 (ELK-luciferase assay) of 0.0338 µM and an Efficacy (ELK-luciferase assay) of 79.5%.
As to “hFc.L15.hFGF21(L98R, P171G, S181P, P182) (Fc fusion)”, the EC50 (ELK-luciferase assay) is 0.272 µM and the Efficacy (ELK-luciferase assay) was determined as 69.9%.
Take “hFc.L15.hFGF21(L98R, P171G, S181T) (Fc fusion)”: the EC50 (ELK-luciferase assay) stood at 0.00307 µM and the Efficacy (ELK-luciferase assay) was determined as 77.6%.
Take “hFc.L15.hFGF21(L98R, P171G, Y179A) (Fc fusion)”: the EC50 (ELK-luciferase assay) worked out at 0.0432 µM and the Efficacy (ELK-luciferase assay) turned out to be 79.6%.
Taken in the same sequence, the figures for “hFc.L15.hFGF21(L98R, P171G, Y179F) (Fc fusion)” were 0.0026 µM and 78.3%.
The substance “hFc.L15.hFGF21(L98R, P171G, Y179G) (Fc fusion)” gave an EC50 (ELK-luciferase assay) of 0.061 µM and an Efficacy (ELK-luciferase assay) of 82.6%.
Consider “hFc.L15.hFGF21(L98R, P171G, Y179P) (Fc fusion)”, for which the EC50 (ELK-luciferase assay) came out at 0.428 µM and the Efficacy (ELK-luciferase assay) came to 44.4%.
In the case of “hFc.L15.hFGF21(L98R, P171G, Y179S) (Fc fusion)”, the EC50 (ELK-luciferase assay) turned out to be 0.0253 µM and the Efficacy (ELK-luciferase assay) turned out to be 74.8%.
